Source: patent publication US8680233B2, “Heteropeptides useful for reducing nonspecific adsorption” (Valorisation-Recherche, Limited Partnership, priority 2009, dated 2014)
Numbered stars: 1 amine (or outer) side, 2 acyl side, 3 side chain; on linkers, the order of the positions; unused ones are H or OH. Square brackets hold non-standard residues; d marks the D form. Ends that are not written are not given here. Peptide text beside a SMILES is read from it. azaTyr = O=C(N(Cc1ccc(O)cc1)N[*:1])[*:2]; azaPhe = O=C(N(Cc1ccccc1)N[*:1])[*:2]; azaLeu = CC(C)CN(N[*:1])C(=O)[*:2]; Mpa = O=C(O)CCS

Columns and labels:
[1] = Surface concentration of the peptide monolayer on Au by SPR; assay type: physicochemical; conditions: peptide SAM on Au SPR sensor; average of four replicates
Description: The surface coverage for each monolayer was measured according to the change in response of the SPR sensor in PBS for the bare Au surface relative to the peptide-coated Au surface. To measure the formation of the monolayers, each SPR sensor was mounted on a custom-made SPR instrument in the Kretschmann configuration based on a dove prism with wavelength interrogation as previously described (Bolduc et al., 2009, supra). An Ocean Optics™ USB4000 fibre optic spectrometer ranging from 550 to 850 nm was used to acquire the spectral information processed with Matlab to obtain the SPR sensorgram. A 25 μL Teflon fluidic cell positioned on top of the SPR sensors was used to inject the solutions required to functionalize with the recognition element and detect the analytes of interest. The SPR response was acquired at a frequency of 1 Hz. The s-polarized reference was acquired in PBS buffer before monitoring a 5 minute baseline in p-polarization. PBS was replaced with crude bovine serum (76 mg/mL protein) for 20 minutes and rinsed with PBS for 5 minutes to quantify the amount of non-specifically adsorbed proteins.
The formation of monolayers on Au was measured to ensure that the peptide monolayers are indeed binding to the SPR sensor. The surface concentration of the monolayer provides a measurement of the number of molecules per square cm (i.e. the density of the monolayer at the surface). The surface concentration (Γ) of peptide-like self-assembled monolayers (SAMs) was characterized with the measurement of the SPR response before the formation of the SAMs and after their formation on the Au surface of the SPR sensor. The difference of SPR wavelength (λSPR) between these two measurements increases with the increasing surface concentration of the SAMs following the equation proposed by Jung et al. (Jung, L. S. et al. Langmuir 1998, 14: 5636): Γ=ρ(−0.5/d)ln(1−(ΔλSPRm^−1(ηSAM−ηPBS)^−1)) (eq. 1)

[2] = Advancing contact angle in PBS on peptide SAMs; assay type: physicochemical; conditions: average of four replicates
[3] = Secondary structure of peptide in solution by CD; assay type: physicochemical
Description: (§1) Peptides adopt secondary conformation, which plays a significant role in their biological activity. For peptides in solution, the secondary conformation is measured with CD, while peptides immobilized on a surface can be analyzed with mid-IR spectroscopy of the amide bands (Duevel, R. V., Corn, R. M., 1992. Analytical Chemistry 64(4), 337-342; Sakurai, T. et al., 2006. Journal of Peptide Science 12(6), 396-402). As listed in Table II, the secondary structure of most peptides adopted an α-helical conformation, with the exception of 3-MPA-DSDSD-OH, which adopted an extended conformation. As noted above, most peptides in the form of 3-MPA-peptide-OH adopt an α-helical conformation. Generally, mid-IR and CD agreed in the determination of the structures on surfaces and in solution, with the exception of one peptide. […] No relationship between structure and nonspecific adsorption could be established.

[4] = Secondary structure of peptide SAM by FT-IR (mid-IR amide band); assay type: physicochemical; conditions: peptide SAM on gold-coated SPR sensor
Description: Microscope slides (BK7, 22×22 mm) were coated with a 3 nm titanium (Ti) adhesion layer and a 50 nm gold (Au) layer (purity 99.99%, ESPI metals) using a Cressington™ 308R sputter coater. These Au-coated SPR slides were immersed for at least 16 h in a 5 mM peptide solution in absolute ethanol to form a well-ordered monolayer (Masson, J. F. et al. Talanta 2004, 64: 716). Four replicates were prepared for each 3-MPA-peptide. The SAM formed on the SPR sensors was extensively rinsed with DMF and ethanol and dried. The mid-IR spectrum of the peptide monolayers immobilized on the SPR sensors was measured in attenuated total reflectance (ATR). Mid-IR spectra were recorded using a BRUKER TENSOR® 27 equipped with a Ge-ATR module.
The 3D structure of the peptides as SAMs is observed with the amide band visible in FT-IR. Peptides adopting an α-helix configuration are showing a strong amide band at 1645 cm^−1, while peptides auto-assembling in the β-sheet configuration leads to a shifted amide at 1675 cm^−1. Every peptide structure investigated in Table 1 adopted an α-helix configuration except for 3-MPA-HHHDD-OH, as shown in FIG. 3.
as §1

CD36 receptor = CD36 receptor (Homo sapiens, UniProt P16671); assay: SRC-kinase cellular assay following CD36 receptor activation; assay type: cell-based; conditions: activation of src-kinases after CD36 receptor activation
CD36 receptor, sequence (P16671 whole entry): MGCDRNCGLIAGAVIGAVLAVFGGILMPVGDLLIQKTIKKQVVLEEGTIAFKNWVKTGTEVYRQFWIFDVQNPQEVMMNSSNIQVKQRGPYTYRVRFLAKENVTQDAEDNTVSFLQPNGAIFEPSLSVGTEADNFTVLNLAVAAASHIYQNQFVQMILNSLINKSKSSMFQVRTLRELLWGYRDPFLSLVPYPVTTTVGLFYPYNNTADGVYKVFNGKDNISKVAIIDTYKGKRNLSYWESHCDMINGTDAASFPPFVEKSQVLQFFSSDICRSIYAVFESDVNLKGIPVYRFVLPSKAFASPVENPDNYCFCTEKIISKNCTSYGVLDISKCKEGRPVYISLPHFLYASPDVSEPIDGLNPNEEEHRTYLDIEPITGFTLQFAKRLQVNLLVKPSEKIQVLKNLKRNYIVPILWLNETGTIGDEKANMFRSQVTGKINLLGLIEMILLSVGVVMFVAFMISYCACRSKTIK
Source text: (§2) The SPR setup was used for investigating the structure-activity relationships of various CD36 peptidic ligands. […] The measured KD's were compared to the EC50 values obtained in the activated src-kinase assay following CD36 receptor activation by the tested peptides. […] For the src-kinase cellular assay, the response sensitivity (EC50) for the tested peptides (in decreasing order) was as follows: EP80317>CP-2A(v)>CP-3(iv)>DBG-178(27)>CP-2B(i). With SPR, the binding affinity to CD36, in decreasing order, was: DBG-178(27)>CP-2A(v)>EP80317>CP-3(iv)>CP-2B(i). […] For CD36-peptidic ligands, a correlation appears between the affinity binding of the small peptides for CD36 as determined by SPR and their efficiency to produce a cellular response in the src kinase assay. Thus, SPR appears as a selective and sensitive method to screen for CD36 ligands.

[5] = molecular target: recombinant soluble His-tagged CD36 (Homo sapiens, UniProt P16671); assay: SPR screening of peptide ligands on a CD36 functionalized sensor; assay type: binding; conditions: for Kd: CD36 functionalized sensor, linear Langmuir plot
recombinant soluble His-tagged CD36, sequence (P16671 30-439 limits assumed): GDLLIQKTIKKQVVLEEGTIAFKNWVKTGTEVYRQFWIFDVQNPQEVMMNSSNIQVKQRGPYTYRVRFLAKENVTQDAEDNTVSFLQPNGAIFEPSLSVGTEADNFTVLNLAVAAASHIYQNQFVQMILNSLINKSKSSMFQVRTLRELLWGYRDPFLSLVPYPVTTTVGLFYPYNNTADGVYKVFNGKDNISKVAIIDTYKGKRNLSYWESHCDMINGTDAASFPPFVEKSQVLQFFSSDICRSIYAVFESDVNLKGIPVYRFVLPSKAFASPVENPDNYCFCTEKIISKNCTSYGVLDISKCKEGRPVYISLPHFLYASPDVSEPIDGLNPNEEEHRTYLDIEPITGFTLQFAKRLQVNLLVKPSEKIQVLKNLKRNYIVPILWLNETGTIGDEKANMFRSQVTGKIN
Description: The SPR sensors for screening small peptidic ligand binding to a recombinant soluble His-tagged CD36 functionalized surfaces were prepared as described above. Five ligands were investigated: EP80317, CP-2B(i), CP-3(iv), CP-2A(v) and DBG-178(27) with concentrations ranging from 30 μM to 100 nM except for EP80317. The latter was used for optimizing the system with solutions ranging from 1 mM to 100 nM. EP80317 (HAIC-2MeDTrp-DLys-Trp-D-Phe-Lys-NH2) is a positive control of known activity, CP-2B(i) (His-DTrp-AzaLeu-Trp-DPhe-Ala-NH2) is a negative control, and CP-3(iv) (Ala-DTrp-Ala-AzaPhe-DPhe-Lys-NH2), CP-2A(v) (His-DTrp-AzaGly-Trp-DPhe-Lys-NH2) and DBG-178(27) (His-DTrp-Ala-azaTyr-DPhe-Lys-NH2) are novel CD36 ligands (see PCT publication No. WO 08/154,738). Another negative control was accomplished by exposing the His-tagged hDHFR functionalized surface to the same concentration of CD36 peptidic ligand. Two different approaches were used to remove the His-tagged CD36-Cu complex from the SPR sensors: concentrated histidine solution or saturated EDTA solution.
This is the case of the CD36-ligand system investigated herein, where the ligands are small peptides of about 800 to 1000 g/mol. Indeed, according to the aforementioned principle, the binding of the small peptides to the CD36 receptor should be close to the limit of detection, thus providing unreliable affinity measurements. […] This could be a consequence of a large conformational change of the CD36 receptor upon binding of specific ligands, thus providing the amplification sufficient for SPR signal detection.
as §2

Row | Molecule | Surface density ΔΓSAM [1] | Contact angle in PBS θC_PBS [2] | Secondary Structure CD (solution) [3] | Secondary Structure FT-IR (SAM) [4] | further results
1 | 3-MPA-LLLDD ([Mpa]LLLDD) | 0.352 10^15 molecule/cm^2 | 52.3 ° |  |  | 
2 | 3-MPA-DDDHH ([Mpa]DDDHH) | 0.279 10^15 molecule/cm^2 | 46.4 ° |  |  | 
3 | 3-MPA-SHDSHD-OH ([Mpa]SHDSHD-OH; SMILES O=C(O)C[C@H](NC(=O)[C@H](Cc1c[nH]cn1)NC(=O)[C@H](CO)NC(=O)[C@H](CC(=O)O)NC(=O)[C@H](Cc1c[nH]cn1)NC(=O)[C@H](CO)NC(=O)CCS)C(=O)O) |  |  | extended | α-helical and α | 
4 | 3-MPA-LLLHH ([Mpa]LLLHH) | 0.296 10^15 molecule/cm^2 | 41.4 ° |  |  | 
5 | 3-MPA-GGHHDD-OH ([Mpa]GGHHDD-OH; SMILES O=C(O)C[C@H](NC(=O)[C@H](CC(=O)O)NC(=O)[C@H](Cc1c[nH]cn1)NC(=O)[C@H](Cc1c[nH]cn1)NC(=O)CNC(=O)CNC(=O)CCS)C(=O)O) |  |  | α | α | 
6 | 3-MPA-DHDHD-OH ([Mpa]DHDHD-OH; SMILES O=C(O)C[C@H](NC(=O)[C@H](Cc1c[nH]cn1)NC(=O)[C@H](CC(=O)O)NC(=O)[C@H](Cc1c[nH]cn1)NC(=O)[C@H](CC(=O)O)NC(=O)CCS)C(=O)O) |  |  | α | α | 
7 | 3-MPA-SSSHH ([Mpa]SSSHH) | 0.301 10^15 molecule/cm^2 | 40.0 ° |  |  | 
8 | C[C@H](N)C(=O)N[C@H](Cc1c[nH]c2ccccc12)C(=O)N[C@@H](C)C(=O)NN(Cc1ccccc1)C(=O)N[C@H](Cc1ccccc1)C(=O)N[C@@H](CCCCN)C(N)=O [CP-3(iv), Ala-DTrp-Ala-AzaPhe-DPhe-Lys-NH2] (H-A[dW]A[azaPhe][dF]K-NH2) |  |  |  |  | EC50 (CD36 receptor): 44 nM; Kd [5]: 380 nM
9 | 3-MPA-DSDSD-OH ([Mpa]DSDSD-OH; SMILES O=C(O)C[C@H](NC(=O)[C@H](CO)NC(=O)[C@H](CC(=O)O)NC(=O)[C@H](CO)NC(=O)[C@H](CC(=O)O)NC(=O)CCS)C(=O)O) |  |  | extended | extended | 
10 | 3-MPA-LLLSS ([Mpa]LLLSS) | 0.255 10^15 molecule/cm^2 | 32.6 ° |  |  | 
11 | CC(C)CN(NC(=O)[C@@H](Cc1c[nH]c2ccccc12)NC(=O)[C@@H](N)Cc1cnc[nH]1)C(=O)N[C@@H](Cc1c[nH]c2ccccc12)C(=O)N[C@H](Cc1ccccc1)C(=O)N[C@@H](C)C(N)=O [CP-2B(i), His-DTrp-AzaLeu-Trp-DPhe-Ala-NH2, reference compound] (H-H[dW][azaLeu]W[dF]A-NH2) |  |  |  |  | EC50 (CD36 receptor): > 10000 nM; Kd [5]: 1400 nM
12 | 3-MPA-LLHHDD-OH ([Mpa]LLHHDD-OH; SMILES CC(C)C[C@H](NC(=O)CCS)C(=O)N[C@@H](CC(C)C)C(=O)N[C@@H](Cc1c[nH]cn1)C(=O)N[C@@H](Cc1c[nH]cn1)C(=O)N[C@@H](CC(=O)O)C(=O)N[C@@H](CC(=O)O)C(=O)O) |  |  | α | α | 
13 | C[C@H](NC(=O)[C@@H](Cc1c[nH]c2ccccc12)NC(=O)[C@@H](N)Cc1cnc[nH]1)C(=O)NN(Cc1ccc(O)cc1)C(=O)N[C@H](Cc1ccccc1)C(=O)N[C@@H](CCCCN)C(N)=O [DBG-178(27), His-DTrp-Ala-azaTyr-DPhe-Lys-NH2] (H-H[dW]A[azaTyr][dF]K-NH2) |  |  |  |  | EC50 (CD36 receptor): 63 nM; Kd [5]: 22 nM
14 | 3-MPA-SSSDD ([Mpa]SSSDD) | 0.441 10^15 molecule/cm^2 | 38.8 ° |  |  | 
15 | 3-MPA-DDDSS ([Mpa]DDDSS) | 0.311 10^15 molecule/cm^2 | 51.2 ° |  |  | 
16 | 3-MPA-LHDLHD-OH ([Mpa]LHDLHD-OH; SMILES CC(C)C[C@H](NC(=O)CCS)C(=O)N[C@@H](Cc1c[nH]cn1)C(=O)N[C@@H](CC(=O)O)C(=O)N[C@@H](CC(C)C)C(=O)N[C@@H](Cc1c[nH]cn1)C(=O)N[C@@H](CC(=O)O)C(=O)O) |  |  | α | α | 
17 | CC(C)CN(NC(=O)[C@@H](Cc1c[nH]c2ccccc12)NC(=O)[C@@H](N)Cc1c[nH]cn1)C(=O)N[C@@H](Cc1c[nH]c2ccccc12)C(=O)N[C@H](Cc1ccccc1)C(=O)N[C@@H](C)C(N)=O [CP-2B(i), His-DTrp-AzaLeu-Trp-DPhe-Ala-NH2, reference compound] (H-H[dW][azaLeu]W[dF]A-NH2) |  |  |  |  | Binding affinity to CD36 (in words) ([5]; negative control): low binding affinity
18 | 3-MPA-GGGGD-OH ([Mpa]GGGGD-OH; SMILES O=C(O)C[C@H](NC(=O)CNC(=O)CNC(=O)CNC(=O)CNC(=O)CCS)C(=O)O) |  |  | α | α | 
19 | 3-MPA-HHHSS ([Mpa]HHHSS) | 0.125 10^15 molecule/cm^2 | 39.9 ° |  |  | 
